Target: Ubiquitin (Ub-propargylamide activity-based probe) (UniProt P0CG48 1-76, C-terminal propargylamide (Ub-PA), covalently linked to ChlaDUB1)
Test: crystal structure

B1: Chlamydia trachomatis ChlaDUB1 (130-401) (enzyme)
chain: PVKTQEDLLPLVPEQVFVEMYEDMARRQTIEALVPAWDSDIIFKCLCYFHTLYPGLIPLETFPPATIFNFKQKIISILEDKKAVLRGEPIKGPLPICCSKENYRRHLQRTTLLPVFMWYHPTPKTLSDTMQTMKQLAIKGSVGASHWLLVIVDIQARRLVYFDSLYNYVMPPENMKKELQSFAQQLDQVYPAYDSKKFSVKIAAKEVIQRGSGSSCGAWCCQFLHWYLKDPLTDALNDLPVDSVERHENLASFVQACEAAVQDLPELSWPEA
modifications: covalently linked to one Ub molecule through the Ub-propargylamide probe (in the enzymatic S1 site)
  binding result: binds
